# In patent US20030207290A1:
# Where “and” joins values, the source holds several entries; their conditions need not be identical. Equal entries are not always repeated. Where two headings read alike, the source gives them in different places.
# Key:
# [1] = biological target: EGFR-pY992 phosphopeptide, DADE(p)…; assay: ECL 7-spot plate screen, peptide-BSA spot, biotinylated TnT protein, Ru-streptavidin; signal normalized in two steps
# [2] = biological target: EGFR-pY1148 phosphopeptide, …(p)…; assay: as above
# [3] = biological target: T1, EGFR-pY1068 phosphopeptide, LPVPE(p)…; assay: as above
# T1 sequence (peptide, phosphotyrosine at (p)Y (residue 6 of the printed peptide; EGFR Tyr1068)): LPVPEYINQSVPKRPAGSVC
# [4] = biological target: phosphorylated EGFR (Sigma Chemical Co, self-phosphorylated) (UniProt P00533); assay: TnT protein on streptavidin plate, […] phosphorylated EGFR; bound EGFR detected by its kinase activity on pEY, 1 hr reaction
# [5] = biological target: phosphorylated EGFR (Sigma Chemical Co, self-phosphorylated) (UniProt P00533); assay: TnT protein on streptavidin plate, […] phosphorylated EGFR; bound EGFR detected by its kinase activity on pEY, 12 hr reaction
# [6] = biological target: EGFR-pY992 phosphopeptide, DADE(p)…; assay: ECL 4-spot multi-array binding assay: peptide-BSA spot, biotinylated TnT protein, Sulfo-TAG streptavidin
# [7] = biological target: EGFR-pY1148 phosphopeptide, …(p)…; assay: as above
# [8] = biological target: T1, EGFR-pY1068 phosphopeptide, LPVPE(p)…; assay: as above
# [9] = biological target: phosphorylated EGFR (Sigma Chemical Co, self-phosphorylated) (UniProt P00533); assay: TnT protein on streptavidin plate, […] phosphorylated EGFR; bound EGFR detected with TAG-labeled anti-EGFR (clone 225)
# [10] = biological target: c-Myc phosphopeptide (Myc-p58Tp62S), …(p)TPPL(p)SPSRRSGL; assay: ECL plate binding assay: peptide-BSA on electrode, biotinylated TnT protein, Sulfo-TAG streptavidin
# [11] = biological target: IkBa phosphopeptide (IkBa-24pp), …(p)SGLD(p)SMKDEEYC; assay: as above
# [12] = biological target: IkBa phosphopeptide (IkBa-24pp), …(p)SGLD(p)SMKDEEYC; assay: ECL 4-spot multi-array binding assay: peptide-BSA spot, biotinylated TnT protein, Sulfo-TAG streptavidin
# BSA (control coating) = BSA (control coating) (UniProt P02769); assay: ECL plate binding assay: BSA control on electrode, biotinylated TnT protein, Sulfo-TAG streptavidin
# [13] = biological target: c-Myc phosphopeptide (Myc-p58Tp62S), …(p)TPPL(p)SPSRRSGL; assay: ECL 7-spot plate screen, peptide-BSA spot, biotinylated TnT protein, Ru-streptavidin; signal normalized in two steps
# [14] = biological target: IkBa phosphopeptide (IkBa-24pp), …(p)SGLD(p)SMKDEEYC; assay: as above
# [15] = biological target: IkBa phosphopeptide (IkBa-24pp), …(p)SGLD(p)SMKDEEYC; assay: ECL 4-spot multi-array binding assay: peptide-BSA spot
# Sequence of EGFR-pY992 phosphopeptide, DADE(p)… (peptide, as listed by the source): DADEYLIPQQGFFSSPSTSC
# Sequence of BSA (control coating) (P02769 25-607 limits assumed): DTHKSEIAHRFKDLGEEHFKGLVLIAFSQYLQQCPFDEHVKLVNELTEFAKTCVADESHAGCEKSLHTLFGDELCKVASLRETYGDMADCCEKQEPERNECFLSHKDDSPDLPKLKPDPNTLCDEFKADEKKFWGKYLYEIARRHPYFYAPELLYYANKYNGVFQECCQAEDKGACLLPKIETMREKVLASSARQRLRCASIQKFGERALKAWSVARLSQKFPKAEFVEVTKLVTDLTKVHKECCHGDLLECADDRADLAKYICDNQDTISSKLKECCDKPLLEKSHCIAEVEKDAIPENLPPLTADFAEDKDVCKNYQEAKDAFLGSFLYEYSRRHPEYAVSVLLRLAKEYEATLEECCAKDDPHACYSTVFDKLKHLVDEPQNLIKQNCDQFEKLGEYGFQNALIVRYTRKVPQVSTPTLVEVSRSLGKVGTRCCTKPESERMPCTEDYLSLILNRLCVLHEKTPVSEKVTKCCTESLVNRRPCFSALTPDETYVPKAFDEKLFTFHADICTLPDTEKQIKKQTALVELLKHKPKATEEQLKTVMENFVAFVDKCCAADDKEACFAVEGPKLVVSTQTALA
# Sequence of IkBa phosphopeptide (IkBa-24pp), …(p)SGLD(p)SMKDEEYC (peptide, as listed by the source): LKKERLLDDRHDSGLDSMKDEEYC
# Sequence of c-Myc phosphopeptide (Myc-p58Tp62S), …(p)TPPL(p)SPSRRSGL (peptide, as listed by the source): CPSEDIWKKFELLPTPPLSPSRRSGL
# Sequence of βTRCP1 (EST clone IMAGE 3491843), in vitro translated, biotin-labelled (Q9Y297 whole entry): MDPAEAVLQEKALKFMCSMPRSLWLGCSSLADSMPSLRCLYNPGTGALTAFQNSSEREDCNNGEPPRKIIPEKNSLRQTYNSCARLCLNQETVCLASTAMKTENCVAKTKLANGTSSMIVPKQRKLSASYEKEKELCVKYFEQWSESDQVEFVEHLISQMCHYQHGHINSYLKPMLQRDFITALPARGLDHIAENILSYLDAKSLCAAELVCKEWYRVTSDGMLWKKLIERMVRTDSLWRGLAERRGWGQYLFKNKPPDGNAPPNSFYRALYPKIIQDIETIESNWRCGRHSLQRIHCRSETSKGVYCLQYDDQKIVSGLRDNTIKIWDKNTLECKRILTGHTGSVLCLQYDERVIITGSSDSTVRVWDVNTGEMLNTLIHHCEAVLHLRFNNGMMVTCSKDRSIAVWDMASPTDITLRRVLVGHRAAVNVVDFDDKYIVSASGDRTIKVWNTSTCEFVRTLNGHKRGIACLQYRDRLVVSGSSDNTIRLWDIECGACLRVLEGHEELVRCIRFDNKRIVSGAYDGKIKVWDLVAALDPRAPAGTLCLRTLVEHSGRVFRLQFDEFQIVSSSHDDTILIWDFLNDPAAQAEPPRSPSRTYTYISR
# Sequence of βTRCP2 (EST clone IMAGE 4237375), in vitro translated, biotin-labelled (Q9UKB1 whole entry): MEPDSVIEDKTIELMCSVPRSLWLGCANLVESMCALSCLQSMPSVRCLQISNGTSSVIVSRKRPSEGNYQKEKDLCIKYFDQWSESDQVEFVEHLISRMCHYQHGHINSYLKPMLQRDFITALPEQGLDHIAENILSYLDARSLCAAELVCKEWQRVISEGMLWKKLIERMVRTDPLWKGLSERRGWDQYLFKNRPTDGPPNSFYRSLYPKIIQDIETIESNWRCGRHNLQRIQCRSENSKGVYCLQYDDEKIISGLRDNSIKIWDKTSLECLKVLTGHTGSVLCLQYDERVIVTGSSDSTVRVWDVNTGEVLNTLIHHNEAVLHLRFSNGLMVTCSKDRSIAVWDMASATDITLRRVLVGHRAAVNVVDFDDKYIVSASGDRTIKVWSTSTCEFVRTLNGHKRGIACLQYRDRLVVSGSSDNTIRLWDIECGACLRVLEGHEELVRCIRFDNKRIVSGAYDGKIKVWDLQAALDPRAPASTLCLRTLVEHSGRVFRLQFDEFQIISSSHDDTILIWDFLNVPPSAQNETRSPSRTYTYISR
Substance,normalized ECL signal [1],normalized ECL signal [2],normalized ECL signal [3],ECL signal [4] [ECL signal],ECL signal [5] [ECL signal],ECL signal [6] [ECL signal],ECL signal [7] [ECL signal],ECL signal [8] [ECL signal],ECL signal [9] [ECL signal],Average ECL signal [10] [ECL signal],Average ECL signal [11] [ECL signal],ECL signal [12] [ECL signal],Average ECL signal (BSA (control coating)) [ECL signal],normalized ECL signal [13],normalized ECL signal [14],normalized ECL signal ([14]; positive control preparation),fold ECL signal over TnT reaction without exogenous DNA [15] [fold]
"Phospholipase C gamma 1 (PLCγ) (EST clone IMAGE 4419252), in vitro translated, biotin-labelled (from UniProt P19174 1-1290) (enzyme)",10,4,55,18000,39800,1400,110,1480,30400,–,–,–,–,–,–,–,–
"Shc (EST clone IMAGE 3909654), in vitro translated, biotin-labelled (from UniProt P29353 1-473)",1,3,1,–,–,–,–,–,–,–,–,–,–,–,–,–,–
"Shc (EST clone IMAGE 3914467), in vitro translated, biotin-labelled (from UniProt P29353 1-473)",1,3,1,–,–,–,–,–,–,–,–,–,–,–,–,–,–

# Results, then the substance that gave them:
normalized ECL signal [1],normalized ECL signal [2],normalized ECL signal [3],ECL signal [4] [ECL signal],ECL signal [5] [ECL signal],ECL signal [6] [ECL signal],ECL signal [7] [ECL signal],ECL signal [8] [ECL signal],ECL signal [9] [ECL signal],Average ECL signal [10] [ECL signal],Average ECL signal [11] [ECL signal],ECL signal [12] [ECL signal],Average ECL signal (BSA (control coating)) [ECL signal],normalized ECL signal [13],normalized ECL signal [14],normalized ECL signal ([14]; positive control preparation),fold ECL signal over TnT reaction without exogenous DNA [15] [fold],Substance
1,5,1,–,–,–,–,–,–,–,–,–,–,–,–,–,–,"Shc (EST clone IMAGE 3909921), in vitro translated, biotin-labelled (from UniProt P29353 1-473)"
1,3,1,–,–,–,–,–,–,–,–,–,–,–,–,–,–,"Shc (EST clone IMAGE 3911953), in vitro translated, biotin-labelled (from UniProt P29353 1-473)"
–,–,–,–,–,498,278,126,–,351,371,446,352,–,–,–,–,"mCBP (EST clone IMAGE 3872466), in vitro translated, biotin-labelled"
–,1,–,–,–,–,36,24,–,2120,40900,2470,1720,8 and 4,12,23,100,"βTRCP1 (EST clone IMAGE 3491843), in vitro translated, biotin-labelled (from UniProt Q9Y297 1-605)"
–,1,–,–,–,–,35,24,–,896,21500,5040,672,10,–,–,100,"βTRCP2 (EST clone IMAGE 4237375), in vitro translated, biotin-labelled (from UniProt Q9UKB1 1-542)"
